Molecular target: T1, recombinant His-tagged wild-type ZPR9 (UniProt Q969S3 1-477)
T1 chain: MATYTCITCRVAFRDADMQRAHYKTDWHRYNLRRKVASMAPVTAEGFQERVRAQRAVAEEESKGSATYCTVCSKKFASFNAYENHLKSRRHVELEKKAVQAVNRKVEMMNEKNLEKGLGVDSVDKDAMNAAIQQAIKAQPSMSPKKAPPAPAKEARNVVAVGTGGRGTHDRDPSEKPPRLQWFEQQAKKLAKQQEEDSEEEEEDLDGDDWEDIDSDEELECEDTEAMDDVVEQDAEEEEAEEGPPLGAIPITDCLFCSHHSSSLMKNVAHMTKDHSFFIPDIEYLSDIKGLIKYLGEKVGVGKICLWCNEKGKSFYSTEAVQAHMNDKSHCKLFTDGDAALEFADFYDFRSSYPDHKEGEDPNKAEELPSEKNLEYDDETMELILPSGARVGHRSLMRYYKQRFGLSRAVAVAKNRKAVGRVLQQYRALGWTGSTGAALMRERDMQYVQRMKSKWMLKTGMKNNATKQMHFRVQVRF
Assay: ITC

Ka: 39100 M⁻¹
B1: recombinant His-tagged wild-type MPK38 (enzyme)
chain: MKDYDELLKYYELYETIGTGGFAKVKLACHVLTGEMVAIKIMDKNALGSDLPRVKTEIDALKSLRHQHICQLYHVLETKNKIFMVLEYCPGGELFDYIISQDRLSEEETRVVFRQILSAVAYVHSQGYAHRDLKPENLLFDENHKLKLIDFGLCAKPKGNKDYHLQTCCGSLAYAAPELIQGKSYLGSEADVWSMGILLYVLMCGFLPFDDDNVMALYKKIMRGKYEVPKWLSPSSILLLQQMLQVDPKKRISMRNLLNHPWVMQDYSCPVEWQSKTPLTHLDEDCVTELSVHHRSSRQTMEDLISSWQYDHLTATYLLLLAKKARGKPARLQLLSFSCGTASTTPKSKNLSLEDMSTSDDNCVAGLIDYELCEDKLLAPKTPQVTKHLAESNHAASKSPAPGVRRAVANKLMDKENVCTPKSSVKNEEQFVFSEPKIPVSKNQYKREIPASPTRFPTPAKARAQCLREAPVRTPGNSAGADTLTTGVISPERRCRSMDVDLNQAHMEDTPKKKGTNVFGSLERGLDKVLTALTRNKKKGSARDGPRKRKLHYNVTTTRLVNPDQLLSEIMAILPKKNVDFVQKGYTLKCQTQSDFGKVTMQFELEVCQLQRPDVVGIRRQRLKGDAWVYKRLVEDILSGCKM

Reference: PMC5307367 (2017)
